# PMC9482650, “Quantitative fragmentomics allow affinity mapping of interactomes” (Nature Communications, 2022)
# T1: APBA2_2, Q99767
# T1 sequence (Q99767 654-744, limits assumed, looked up): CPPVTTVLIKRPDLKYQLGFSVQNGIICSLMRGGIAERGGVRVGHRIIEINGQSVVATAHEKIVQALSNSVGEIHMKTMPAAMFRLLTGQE
# T2: ARHGAP21, Q5T5U3
# T2 sequence (Q5T5U3 45-169, limits assumed, looked up): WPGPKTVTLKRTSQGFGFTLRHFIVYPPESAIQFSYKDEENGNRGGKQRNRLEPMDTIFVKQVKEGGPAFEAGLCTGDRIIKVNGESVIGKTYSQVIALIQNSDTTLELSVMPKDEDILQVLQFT
# T3: HTRA4, P83105
# T3 sequence (P83105 378-476, limits assumed, looked up): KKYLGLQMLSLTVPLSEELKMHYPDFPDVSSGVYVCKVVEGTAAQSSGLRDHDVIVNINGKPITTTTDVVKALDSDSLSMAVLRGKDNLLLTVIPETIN
# T4: LIN7C, Q9NUP9
# T4 sequence (Q9NUP9 88-185, limits assumed, looked up): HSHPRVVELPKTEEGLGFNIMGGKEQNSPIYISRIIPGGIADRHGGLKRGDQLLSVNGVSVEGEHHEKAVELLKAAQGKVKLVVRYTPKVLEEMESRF
# T5: LNX2_2, Q8N448
# T5 sequence (Q8N448 334-432, limits assumed, looked up): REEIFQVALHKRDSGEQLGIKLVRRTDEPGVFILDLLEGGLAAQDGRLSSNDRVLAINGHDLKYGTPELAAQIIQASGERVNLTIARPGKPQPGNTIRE
# T6: PDZRN3_1, Q9UPQ7
# T6 sequence (Q9UPQ7 244-349, limits assumed, looked up): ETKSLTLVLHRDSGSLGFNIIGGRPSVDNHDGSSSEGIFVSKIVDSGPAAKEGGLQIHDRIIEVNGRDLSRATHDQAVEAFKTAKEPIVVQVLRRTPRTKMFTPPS
# Molecular target: T1, APBA2_2, Q99767
# Test: holdup assay
# Design: key: below the threshold = too weak to quantify, mostly under pKd 3.1 to 4
# Conditions: plain residues with an end cap or a label only (N-terminal biotin on a linker: ado-ado)
row,Binder,pKd
1,"ALPLPQSSTC [IGF1R, P08069]",below the threshold

# Molecular target: T2, ARHGAP21, Q5T5U3
# Test: holdup assay
# Design: key: below the threshold = too weak to quantify, mostly under pKd 3.1 to 4
# Conditions: plain residues with an end cap or a label only (N-terminal biotin on a linker: ado-ado)
row,Binder,pKd
1,"ALPLPQSSTC [IGF1R, P08069]",3.76

# Molecular target: DLG1_2, Q12959
# Test: holdup assay
# Design: key: below the threshold = too weak to quantify, mostly under pKd 3.1 to 4
# Conditions: plain residues with an end cap or a label only (N-terminal biotin on a linker: ado-ado)
# Chain of DLG1_2, Q12959 (Q12959 314-412): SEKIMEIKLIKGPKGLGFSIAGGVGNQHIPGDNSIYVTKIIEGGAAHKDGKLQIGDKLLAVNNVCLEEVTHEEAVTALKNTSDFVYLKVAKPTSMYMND
row,Binder,pKd
1,"ALPLPQSSTC [IGF1R, P08069]",3.5

# Molecular target: DLG2_3, Q15700
# Test: holdup assay
# Design: key: below the threshold = too weak to quantify, mostly under pKd 3.1 to 4
# Conditions: plain residues with an end cap or a label only (N-terminal biotin on a linker: ado-ado)
row,Binder,pKd
1,"ALPLPQSSTC [IGF1R, P08069]",3.76

# Molecular target: DLG4_1, P78352
# Test: holdup assay
# Design: key: below the threshold = too weak to quantify, mostly under pKd 3.1 to 4
# Conditions: plain residues with an end cap or a label only (N-terminal biotin on a linker: ado-ado)
# Chain of DLG4_1, P78352 (P78352 62-152): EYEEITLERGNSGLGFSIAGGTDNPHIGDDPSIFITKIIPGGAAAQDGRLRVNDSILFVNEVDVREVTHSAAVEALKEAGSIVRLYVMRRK
row,Binder,pKd
1,"ALPLPQSSTC [IGF1R, P08069]",below the threshold

# Molecular target: DLG4_2, P78352
# Test: holdup assay
# Design: key: below the threshold = too weak to quantify, mostly under pKd 3.1 to 4
# Conditions: plain residues with an end cap or a label only (N-terminal biotin on a linker: ado-ado)
# Chain of DLG4_2, P78352 (P78352 155-259): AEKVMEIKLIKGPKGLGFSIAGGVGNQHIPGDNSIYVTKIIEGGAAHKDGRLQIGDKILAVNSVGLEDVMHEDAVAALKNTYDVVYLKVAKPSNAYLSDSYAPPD
row,Binder,pKd
1,"ALPLPQSSTC [IGF1R, P08069]",3.76

# Molecular target: DLG4_3, P78352
# Test: holdup assay
# Design: key: below the threshold = too weak to quantify, mostly under pKd 3.1 to 4
# Conditions: plain residues with an end cap or a label only (N-terminal biotin on a linker: ado-ado)
# Chain of DLG4_3, P78352 (P78352 306-403): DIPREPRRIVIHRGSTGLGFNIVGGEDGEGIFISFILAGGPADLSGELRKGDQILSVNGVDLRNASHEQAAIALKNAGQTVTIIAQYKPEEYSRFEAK
row,Binder,pKd
1,"ALPLPQSSTC [IGF1R, P08069]",below the threshold

# Molecular target: FRMPD3, Q5JV73
# Test: holdup assay
# Design: key: below the threshold = too weak to quantify, mostly under pKd 3.1 to 4
# Conditions: plain residues with an end cap or a label only (N-terminal biotin on a linker: ado-ado)
# Chain of FRMPD3, Q5JV73 (Q5JV73 12-100): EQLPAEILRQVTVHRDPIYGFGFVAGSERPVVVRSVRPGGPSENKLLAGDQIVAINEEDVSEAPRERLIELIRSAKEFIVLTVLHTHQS
row,Binder,pKd
1,"ALPLPQSSTC [IGF1R, P08069]",below the threshold

# Molecular target: FRMPD4, Q14CM0
# Test: holdup assay
# Design: key: below the threshold = too weak to quantify, mostly under pKd 3.1 to 4
# Conditions: plain residues with an end cap or a label only (N-terminal biotin on a linker: ado-ado)
# Chain of FRMPD4, Q14CM0 (Q14CM0 67-160): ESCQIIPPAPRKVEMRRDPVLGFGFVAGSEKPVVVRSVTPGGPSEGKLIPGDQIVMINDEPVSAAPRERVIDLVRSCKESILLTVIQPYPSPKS
row,Binder,pKd
1,"ALPLPQSSTC [IGF1R, P08069]",3.54

# Molecular target: GOPC, Q9HD26
# Test: holdup assay
# Design: key: below the threshold = too weak to quantify, mostly under pKd 3.1 to 4
# Conditions: plain residues with an end cap or a label only (N-terminal biotin on a linker: ado-ado)
row,Binder,pKd
1,"ALPLPQSSTC [IGF1R, P08069]",3.55

# Molecular target: GORASP1, Q9BQQ3
# Test: holdup assay
# Design: key: below the threshold = too weak to quantify, mostly under pKd 3.1 to 4
# Conditions: plain residues with an end cap or a label only (N-terminal biotin on a linker: ado-ado)
# Chain of GORASP1, Q9BQQ3 (Q9BQQ3 1-208): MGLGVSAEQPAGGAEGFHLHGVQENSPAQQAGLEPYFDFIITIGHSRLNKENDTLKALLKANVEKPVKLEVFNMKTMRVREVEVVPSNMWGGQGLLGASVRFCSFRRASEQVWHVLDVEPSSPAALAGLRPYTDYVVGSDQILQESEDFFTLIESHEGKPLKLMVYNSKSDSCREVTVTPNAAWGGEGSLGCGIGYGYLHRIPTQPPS
row,Binder,pKd
1,"ALPLPQSSTC [IGF1R, P08069]",below the threshold

# Molecular target: GRASP, Q7Z6J2
# Test: holdup assay
# Design: key: below the threshold = too weak to quantify, mostly under pKd 3.1 to 4
# Conditions: plain residues with an end cap or a label only (N-terminal biotin on a linker: ado-ado)
# Chain of GRASP, Q7Z6J2 (Q7Z6J2 96-193): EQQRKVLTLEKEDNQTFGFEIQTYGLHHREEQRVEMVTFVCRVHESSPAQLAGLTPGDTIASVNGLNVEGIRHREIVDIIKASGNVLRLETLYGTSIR
row,Binder,pKd
1,"ALPLPQSSTC [IGF1R, P08069]",4.12

# Molecular target: GRIP2_4, Q9C0E4
# Test: holdup assay
# Design: key: below the threshold = too weak to quantify, mostly under pKd 3.1 to 4
# Conditions: plain residues with an end cap or a label only (N-terminal biotin on a linker: ado-ado)
# Chain of GRIP2_4, Q9C0E4 (Q9C0E4 446-548): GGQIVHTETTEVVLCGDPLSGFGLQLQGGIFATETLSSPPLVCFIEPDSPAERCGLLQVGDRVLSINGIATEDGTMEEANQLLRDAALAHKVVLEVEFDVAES
row,Binder,pKd
1,"ALPLPQSSTC [IGF1R, P08069]",below the threshold

# Molecular target: GRIP2_7, Q9C0E4
# Test: holdup assay
# Design: key: below the threshold = too weak to quantify, mostly under pKd 3.1 to 4
# Conditions: plain residues with an end cap or a label only (N-terminal biotin on a linker: ado-ado)
# Chain of GRIP2_7, Q9C0E4 (Q9C0E4 934-1023): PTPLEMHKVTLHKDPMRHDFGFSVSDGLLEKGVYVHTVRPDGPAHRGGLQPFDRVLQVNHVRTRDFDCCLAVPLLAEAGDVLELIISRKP
row,Binder,pKd
1,"ALPLPQSSTC [IGF1R, P08069]",below the threshold

# Molecular target: HTRA1, Q92743
# Test: holdup assay
# Design: key: below the threshold = too weak to quantify, mostly under pKd 3.1 to 4
# Conditions: plain residues with an end cap or a label only (N-terminal biotin on a linker: ado-ado)
# Chain of HTRA1, Q92743 (Q92743 360-477): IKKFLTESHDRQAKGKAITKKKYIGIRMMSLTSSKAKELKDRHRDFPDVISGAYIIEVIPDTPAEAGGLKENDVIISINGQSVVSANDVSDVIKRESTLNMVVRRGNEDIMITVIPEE
row,Binder,pKd
1,"ALPLPQSSTC [IGF1R, P08069]",3.69

# Molecular target: T3, HTRA4, P83105
# Test: holdup assay
# Design: key: below the threshold = too weak to quantify, mostly under pKd 3.1 to 4
# Conditions: plain residues with an end cap or a label only (N-terminal biotin on a linker: ado-ado)
row,Binder,pKd
1,"ALPLPQSSTC [IGF1R, P08069]",below the threshold

# Molecular target: IL16_3, Q14005
# Test: holdup assay
# Design: key: below the threshold = too weak to quantify, mostly under pKd 3.1 to 4
# Conditions: plain residues with an end cap or a label only (N-terminal biotin on a linker: ado-ado)
# Chain of IL16_3, Q14005 (Q14005 1107-1207): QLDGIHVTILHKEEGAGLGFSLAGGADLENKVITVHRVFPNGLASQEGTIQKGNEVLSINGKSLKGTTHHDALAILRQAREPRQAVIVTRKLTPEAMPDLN
row,Binder,pKd
1,"ALPLPQSSTC [IGF1R, P08069]",below the threshold

# Molecular target: IL16_4, Q14005
# Test: holdup assay
# Design: key: below the threshold = too weak to quantify, mostly under pKd 3.1 to 4
# Conditions: plain residues with an end cap or a label only (N-terminal biotin on a linker: ado-ado)
# Chain of IL16_4, Q14005 (Q14005 1229-1329): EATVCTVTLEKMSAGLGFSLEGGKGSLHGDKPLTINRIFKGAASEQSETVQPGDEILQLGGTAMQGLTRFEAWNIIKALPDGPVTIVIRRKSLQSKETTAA
row,Binder,pKd
1,"ALPLPQSSTC [IGF1R, P08069]",below the threshold

# Molecular target: Inadl_4, Q8NI35
# Test: holdup assay
# Design: key: below the threshold = too weak to quantify, mostly under pKd 3.1 to 4
# Conditions: plain residues with an end cap or a label only (N-terminal biotin on a linker: ado-ado)
# Chain of Inadl_4, Q8NI35 (Q8NI35 547-651): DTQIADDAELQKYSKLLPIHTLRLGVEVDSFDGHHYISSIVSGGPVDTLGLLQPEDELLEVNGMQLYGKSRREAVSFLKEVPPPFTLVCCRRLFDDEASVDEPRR
row,Binder,pKd
1,"ALPLPQSSTC [IGF1R, P08069]",below the threshold

# Molecular target: Inadl_5, Q8NI35
# Test: holdup assay
# Design: key: below the threshold = too weak to quantify, mostly under pKd 3.1 to 4
# Conditions: plain residues with an end cap or a label only (N-terminal biotin on a linker: ado-ado)
# Chain of Inadl_5, Q8NI35 (Q8NI35 673-780): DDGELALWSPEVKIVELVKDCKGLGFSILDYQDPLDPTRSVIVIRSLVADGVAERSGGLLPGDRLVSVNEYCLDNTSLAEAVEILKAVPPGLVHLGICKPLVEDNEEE
row,Binder,pKd
1,"ALPLPQSSTC [IGF1R, P08069]",below the threshold

# Molecular target: Inadl_8, Q8NI35
# Test: holdup assay
# Design: key: below the threshold = too weak to quantify, mostly under pKd 3.1 to 4
# Conditions: plain residues with an end cap or a label only (N-terminal biotin on a linker: ado-ado)
# Chain of Inadl_8, Q8NI35 (Q8NI35 1425-1530): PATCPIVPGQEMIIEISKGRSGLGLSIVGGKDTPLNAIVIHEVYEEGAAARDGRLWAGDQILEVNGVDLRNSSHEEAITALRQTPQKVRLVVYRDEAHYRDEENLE
row,Binder,pKd
1,"ALPLPQSSTC [IGF1R, P08069]",3.66

# Molecular target: LAP2, Q96RT1
# Test: holdup assay
# Design: key: below the threshold = too weak to quantify, mostly under pKd 3.1 to 4
# Conditions: plain residues with an end cap or a label only (N-terminal biotin on a linker: ado-ado)
# Chain of LAP2, Q96RT1 (Q96RT1 other isoform, or with tags, fused parts or gaps): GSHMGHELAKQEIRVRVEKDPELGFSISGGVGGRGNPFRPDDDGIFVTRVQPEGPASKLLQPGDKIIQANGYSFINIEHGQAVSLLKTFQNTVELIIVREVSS
row,Binder,pKd
1,"ALPLPQSSTC [IGF1R, P08069]",below the threshold

# Molecular target: LDB3, O75112
# Test: holdup assay
# Design: key: below the threshold = too weak to quantify, mostly under pKd 3.1 to 4
# Conditions: plain residues with an end cap or a label only (N-terminal biotin on a linker: ado-ado)
# Chain of LDB3, O75112 (O75112 1-94): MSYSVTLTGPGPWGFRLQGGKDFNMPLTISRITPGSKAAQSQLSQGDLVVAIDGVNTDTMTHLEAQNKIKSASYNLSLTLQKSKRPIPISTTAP
row,Binder,pKd
1,"ALPLPQSSTC [IGF1R, P08069]",below the threshold

# Molecular target: T4, LIN7C, Q9NUP9
# Test: holdup assay
# Design: key: below the threshold = too weak to quantify, mostly under pKd 3.1 to 4
# Conditions: plain residues with an end cap or a label only (N-terminal biotin on a linker: ado-ado)
row,Binder,pKd
1,"ALPLPQSSTC [IGF1R, P08069]",below the threshold

# Molecular target: LNX1_1, Q8TBB1
# Test: holdup assay
# Design: key: below the threshold = too weak to quantify, mostly under pKd 3.1 to 4
# Conditions: plain residues with an end cap or a label only (N-terminal biotin on a linker: ado-ado)
# Chain of LNX1_1, Q8TBB1 (Q8TBB1 261-371): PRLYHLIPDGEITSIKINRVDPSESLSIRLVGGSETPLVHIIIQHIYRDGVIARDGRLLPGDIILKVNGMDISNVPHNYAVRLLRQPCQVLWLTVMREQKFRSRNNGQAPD
row,Binder,pKd
1,"ALPLPQSSTC [IGF1R, P08069]",3.58

# Molecular target: T5, LNX2_2, Q8N448
# Test: holdup assay
# Design: key: below the threshold = too weak to quantify, mostly under pKd 3.1 to 4
# Conditions: plain residues with an end cap or a label only (N-terminal biotin on a linker: ado-ado)
row,Binder,pKd
1,"ALPLPQSSTC [IGF1R, P08069]",3.55

# Molecular target: MAGI1_1, Q96QZ7
# Test: holdup assay
# Design: key: below the threshold = too weak to quantify, mostly under pKd 3.1 to 4
# Conditions: plain residues with an end cap or a label only (N-terminal biotin on a linker: ado-ado)
# Chain of MAGI1_1, Q96QZ7 (Q96QZ7 1-106): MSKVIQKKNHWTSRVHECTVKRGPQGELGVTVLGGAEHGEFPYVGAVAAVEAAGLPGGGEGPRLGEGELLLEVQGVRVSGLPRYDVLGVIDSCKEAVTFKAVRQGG
row,Binder,pKd
1,"ALPLPQSSTC [IGF1R, P08069]",below the threshold

# Molecular target: MAGI2_2, Q86UL8
# Test: holdup assay
# Design: key: below the threshold = too weak to quantify, mostly under pKd 3.1 to 4
# Conditions: plain residues with an end cap or a label only (N-terminal biotin on a linker: ado-ado)
# Chain of MAGI2_2, Q86UL8 (Q86UL8 410-522): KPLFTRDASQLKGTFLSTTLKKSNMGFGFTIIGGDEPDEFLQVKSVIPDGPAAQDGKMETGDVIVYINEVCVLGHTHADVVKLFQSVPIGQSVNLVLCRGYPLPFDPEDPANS
row,Binder,pKd
1,"ALPLPQSSTC [IGF1R, P08069]",below the threshold

# Molecular target: MAGI2_3, Q86UL8
# Test: holdup assay
# Design: key: below the threshold = too weak to quantify, mostly under pKd 3.1 to 4
# Conditions: plain residues with an end cap or a label only (N-terminal biotin on a linker: ado-ado)
# Chain of MAGI2_3, Q86UL8 (Q86UL8 600-682): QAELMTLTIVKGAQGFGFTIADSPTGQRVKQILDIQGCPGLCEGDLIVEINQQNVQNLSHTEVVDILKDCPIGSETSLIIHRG
row,Binder,pKd
1,"ALPLPQSSTC [IGF1R, P08069]",below the threshold

# Molecular target: MAGI2_5, Q86UL8
# Test: holdup assay
# Design: key: below the threshold = too weak to quantify, mostly under pKd 3.1 to 4
# Conditions: plain residues with an end cap or a label only (N-terminal biotin on a linker: ado-ado)
# Chain of MAGI2_5, Q86UL8 (Q86UL8 915-1017): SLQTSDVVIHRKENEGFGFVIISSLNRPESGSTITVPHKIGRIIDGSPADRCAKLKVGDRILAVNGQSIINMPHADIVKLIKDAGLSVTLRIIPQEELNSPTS
row,Binder,pKd
1,"ALPLPQSSTC [IGF1R, P08069]",below the threshold

# Molecular target: PDLIM1, O00151
# Test: holdup assay
# Design: key: below the threshold = too weak to quantify, mostly under pKd 3.1 to 4
# Conditions: plain residues with an end cap or a label only (N-terminal biotin on a linker: ado-ado)
# Chain of PDLIM1, O00151 (O00151 1-87): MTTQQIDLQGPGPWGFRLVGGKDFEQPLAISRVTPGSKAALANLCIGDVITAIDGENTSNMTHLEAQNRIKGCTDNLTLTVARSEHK
row,Binder,pKd
1,"ALPLPQSSTC [IGF1R, P08069]",below the threshold

# Molecular target: T6, PDZRN3_1, Q9UPQ7
# Test: holdup assay
# Design: key: below the threshold = too weak to quantify, mostly under pKd 3.1 to 4
# Conditions: plain residues with an end cap or a label only (N-terminal biotin on a linker: ado-ado)
row,Binder,pKd
1,"ALPLPQSSTC [IGF1R, P08069]",below the threshold

# Molecular target: TJP1_2, Q07157
# Test: holdup assay
# Design: key: below the threshold = too weak to quantify, mostly under pKd 3.1 to 4
# Conditions: plain residues with an end cap or a label only (N-terminal biotin on a linker: ado-ado)
# Chain of TJP1_2, Q07157 (Q07157 181-274): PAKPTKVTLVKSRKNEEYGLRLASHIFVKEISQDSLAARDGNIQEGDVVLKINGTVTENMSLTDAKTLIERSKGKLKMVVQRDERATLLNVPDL
row,Binder,pKd
1,"ALPLPQSSTC [IGF1R, P08069]",below the threshold
